Article PMC8245648, “The R2R3-type MYB transcription factor MdMYB90-like is responsible for the enhanced skin color of an apple bud sport mutant”

T1: MdMYB90-like (Malus domestica (Fuji apple / M_Fuji …, UniProt A0A498J9W0 1-206))
T1 sequence: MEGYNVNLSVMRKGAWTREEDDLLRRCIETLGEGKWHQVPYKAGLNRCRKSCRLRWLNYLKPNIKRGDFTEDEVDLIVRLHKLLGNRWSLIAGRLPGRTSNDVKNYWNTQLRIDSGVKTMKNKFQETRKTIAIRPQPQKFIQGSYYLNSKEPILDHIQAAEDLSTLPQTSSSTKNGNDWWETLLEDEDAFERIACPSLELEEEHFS


How the values were obtained:
MdMYB90-like [1] = biological target: T1, MdMYB90-like; assay: EMSA; EMSA, Beyotime Chemiluminescent EMSA Kit, 1x kit binding buffer, 10 uL total; salt, pH and temperature not stated; details: protein: recombinant; tags: MBP (pMAL-c5X fusion); label: biotin; blunt
MdMYB90-like [2] = biological target: T1, MdMYB90-like; assay: competition; unlabeled mutant did not reduce binding to N5; EMSA, Beyotime Chemiluminescent EMSA Kit, 1x kit binding buffer, 10 uL total; salt, pH and temperature not stated; details: protein: recombinant; tags: MBP (pMAL-c5X fusion); blunt
MdMYB90-like [3] = biological target: T1, MdMYB90-like; assay: competition; unlabeled mutant did not reduce binding to N3; EMSA, Beyotime Chemiluminescent EMSA Kit, 1x kit binding buffer, 10 uL total; salt, pH and temperature not stated; details: protein: recombinant; tags: MBP (pMAL-c5X fusion); blunt
MdMYB90-like [4] = biological target: T1, MdMYB90-like; assay: competition; unlabeled mutant did not reduce binding to N1; EMSA, Beyotime Chemiluminescent EMSA Kit, 1x kit binding buffer, 10 uL total; salt, pH and temperature not stated; details: protein: recombinant; tags: MBP (pMAL-c5X fusion); blunt
MdMYB90-like [5] = biological target: T1, MdMYB90-like; assay: competition; unlabeled mutant did not reduce binding to N7; EMSA, Beyotime Chemiluminescent EMSA Kit, 1x kit binding buffer, 10 uL total; salt, pH and temperature not stated; details: protein: recombinant; tags: MBP (pMAL-c5X fusion); blunt

Binder	binding result (MdMYB90-like [1])	other results
BHLH3 probe (dsDNA) DNA 1: CCTGCTCACTAACCAATCAAACCCA DNA 2: TGGGTTTGATTGGTTAGTGAGCAGG	binds	
BHLH3m probe (dsDNA) DNA 1: CCTGCTCACTGGTAAATCAAACCCA DNA 2: TGGGTTTGATTTACCAGTGAGCAGG		binding result (MdMYB90-like [2]): no binding
CHS probe (dsDNA) DNA 1: GACTAATTTCAACTGCTCCCAAAGT DNA 2: ACTTTGGGAGCAGTTGAAATTAGTC	binds	
MYB1 probe (dsDNA) DNA 1: CGGACCACTCAACGGAACAAATAAG DNA 2: CTTATTTGTTCCGTTGAGTGGTCCG	binds	
UFGTm probe (dsDNA) DNA 1: TGGTACAAATGGTAACAATAAAATA DNA 2: TATTTTATTGTTACCATTTGTACCA		binding result (MdMYB90-like [3]): no binding
UFGT probe (dsDNA) DNA 1: TGGTACAAACAACTGCAATAAAATA DNA 2: TATTTTATTGCAGTTGTTTGTACCA	binds	
CHSm probe (dsDNA) DNA 1: GACTAATTTTGGTAACTCCCAAAGT DNA 2: ACTTTGGGAGTTACCAAAATTAGTC		binding result (MdMYB90-like [4]): no binding
MYB1m probe (dsDNA) DNA 1: CGGACCACTTGGTAAAACAAATAAG DNA 2: CTTATTTGTTTTACCAAGTGGTCCG		binding result (MdMYB90-like [5]): no binding
